± gives the standard deviation of the averaged measurements.
test system: Saccharomyces cerevisiae; experiment: protein stability index of tFT-peptide fusion (C-terminal peptide) (PSI (0-1 scale)); higher = more stable (slower turnover); settings: genetic background: wild type; temperature: 30 C
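Further: PSI is a weighted mean of sequencing reads over stability bins, variants kept only with over 10 reads, mCherry proximal and sfGFP distal, peptide attached via GGGS linker.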

Sequence | protein stability index
PFSLPPPRPPRP | 0.684 ± 0.045
PFSNFFFRLSFS | 0.665 ± 0.028
PFSPHPGPPPPP | 0.7659 ± 0.002
PFSTWLSSPSLP | 0.774 ± 0.07
PFVGSSPFPLCL | 0.645 ± 0.042
PFVPPPHRDDSP | 0.746 ± 0.082
PGATSAIPPPFT | 0.738 ± 0.03
PGGLSCPSPPTI | 0.676 ± 0.057
PGLPLPPFPFFS | 0.762 ± 0.047
PGNFLSVSMSIC | 0.649 ± 0.051
PGPLVFPLPLAC | 0.578 ± 0.036
PGPSPSPPLPRF | 0.748 ± 0.014
PGPSPVLPPPPP | 0.633 ± 0.038
PGRFVVGAGRED | 0.686 ± 0.024
PGSTCWLFEFLS | 0.711 ± 0.07
PGTATRAPQLIP | 0.727 ± 0.033
PHAPHPPALTPP | 0.623 ± 0.072
PHAPSHLPSSLP | 0.712 ± 0.025
PHDPHNTATNQG | 0.721 ± 0.016
PHDRSPPHGPKL | 0.742 ± 0.1
PHLDSPGPLAII | 0.682 ± 0.023
PHLPPSLFPSPP | 0.659 ± 0.073
PHLRTRRPPLLH | 0.694 ± 0.01

Sequence | protein stability index
PHLTTPATPVLL | 0.716 ± 0.023
PHPPHPPPPPPS | 0.689 ± 0.036
PHPPPSPGPSPP | 0.707 ± 0.11
PHPPRPPRAPPP | 0.634 ± 0.024
PHPPRPSTPPPT | 0.637 ± 0.059
PHPRSVSPPPPS | 0.624 ± 0.075
PHPSAAPPPNPP | 0.759 ± 0.062
PHPSLPGPFPHP | 0.7049 ± 0.0045
PHPWTSPPAPPP | 0.698 ± 0.022
PHRLLTQITTGT | 0.746 ± 0.12
PIAASAPPLCPR | 0.692 ± 0.014
PIALPSPSSPIF | 0.669 ± 0.015
PIFQGTCPSTFV | 0.675 ± 0.02
PIFVCPFPGSLV | 0.683 ± 0.065
PIGLCLYNSPRF | 0.662 ± 0.035
PILPPLVPSSRL | 0.769 ± 0.07
PIMESARGFLCV | 0.658 ± 0.052
PINIERNKRIKR | 0.733 ± 0.021
PIPAPFFLAPPL | 0.731 ± 0.06
PIPPPPPLRPSS | 0.69 ± 0.011
PIPTQYPPPKAP | 0.675 ± 0.069
PKKDNIQLQKPA | 0.694 ± 0.028
PKPPPSSGRCPA | 0.633 ± 0.011

Sequence | protein stability index
PKRHLTFLPRGV | 0.662 ± 0.036
PKWSVTPVAANL | 0.695 ± 0.048
PLALPLPRLVLP | 0.643 ± 0.026
PLCLCCPIGIIS | 0.516 ± 0.008
PLFAPLCLNSNR | 0.666 ± 0.016
PLFASLHPSGPL | 0.699 ± 0.032
PLGDLGPRLRKP | 0.669 ± 0.039
PLGPSTQHPLSI | 0.687 ± 0.025
PLHMWFSLLKPS | 0.716 ± 0.074
PLHNPPTRRTTP | 0.67 ± 0.056
PLHPQPAATPRS | 0.713 ± 0.023
PLHPSRPPPSSP | 0.708 ± 0.033
PLIYFLASNSRF | 0.713 ± 0.069
PLLDEQCLGIDS | 0.658 ± 0.015
PLLPFRYTRSGT | 0.68 ± 0.07
PLLPLAASPPPP | 0.683 ± 0.051
PLLPPLPPPLPP | 0.692 ± 0.1
PLLPSPAPLHPP | 0.583 ± 0.044
PLLRPRLRPFPR | 0.704 ± 0.049
PLNQSYFVFSGN | 0.724 ± 0.019
PLPIHSHPPPVP | 0.615 ± 0.0068
PLPIPHASPTLA | 0.641 ± 0.025
PLPIPSPLRSSF | 0.689 ± 0.053

Sequence | protein stability index
PLPLPPSVTSLL | 0.729 ± 0.044
PLPPILPAPPPT | 0.704 ± 0.028
PLPPLLPPSPPP | 0.767 ± 0.0085
PLPPLPPPPPAA | 0.682 ± 0.038
PLPPLPPPTAPP | 0.693 ± 0.029
PLPPPPLLALCS | 0.531 ± 0.02
PLPPPPPPPLPP | 0.737 ± 0.011
PLPPPPRPPAPL | 0.688 ± 0.0072
PLPPPPRPPPNP | 0.665 ± 0.01
PLPPPPRPRPPL | 0.721 ± 0.04
PLPPPPTPPVLP | 0.691 ± 0.016
PLPPPRPSPGLL | 0.67 ± 0.1
PLPPPSGLLSRL | 0.902 ± 0.047
PLPPSHPPTGPP | 0.661 ± 0.012
PLPPTFPSPLPP | 0.665 ± 0.008
PLPPTPPPLAPP | 0.644 ± 0.086
PLPRHSSPLPHI | 0.684 ± 0.0089
PLPRPPSPPYPP | 0.65 ± 0.035
PLPRPRHHEPNS | 0.75 ± 0.044
PLPRTPTLPTPE | 0.635 ± 0.036
PLPSPPAPNSPQ | 0.6793 ± 0.0053
PLPSSSTRSTSP | 0.714 ± 0.013
PLPYPPTSPTPR | 0.678 ± 0.0078

Sequence | protein stability index
PLPYSPPLHVYP | 0.691 ± 0.023
PLRAHLYRPSVP | 0.69 ± 0.03
PLRALLPTRCNL | 0.732 ± 0.067
PLRGRRPIFPAP | 0.724 ± 0.088
PLRPPSSPLWHT | 0.6937 ± 0.0037
PLRRSTSPLILL | 0.648 ± 0.033
PLRSLNHSGRPP | 0.641 ± 0.06
PLRSLPRPLSST | 0.65913 ± 0.00011
PLRSPSYPPPPP | 0.6814 ± 0.00091
PLRTLFGDHLLV | 0.6826 ± 0.002
PLSLRLCYLPWY | 0.701 ± 0.0086
PLSPLVPVRTRP | 0.682 ± 0.072
PLSPPLPLPLPL | 0.75 ± 0.037
PLSPPPAPLPSS | 0.747 ± 0.071
PLSPPPPGPPAS | 0.6037 ± 0.0024
PLSPPPPPPLPA | 0.71 ± 0.011
PLSPPPPTLPLP | 0.714 ± 0.036
PLSPPPYPPRPL | 0.721 ± 0.024
PLSPSPPPAFPA | 0.794 ± 0.039
PLSWVLFSFFHA | 0.697 ± 0.062
PLTPPLPPSPPP | 0.711 ± 0.026
PLTTIPSPNSLE | 0.666 ± 0.032
PLTVPLPLALSP | 0.684 ± 0.047

Sequence | protein stability index
PNHLDPPTLHVN | 0.714 ± 0.021
PNKRLKERGDPS | 0.695 ± 0.086
PNSSLLNLPRPP | 0.744 ± 0.041
PPAAHPFAPFPS | 0.71 ± 0.014
PPACPYPFRPLP | 0.668 ± 0.025
PPACSPSPPRSS | 0.723 ± 0.028
PPAHIFHPPPAR | 0.699 ± 0.081
PPALHRPFPPPP | 0.666 ± 0.016
PPALLAPAAPLP | 0.652 ± 0.07
PPALPRFPACTT | 0.714 ± 0.056
PPALSSNPVIPG | 0.626 ± 0.099
PPAPAPPAPPPL | 0.649 ± 0.027
PPAPLPAPRLAL | 0.709 ± 0.036
PPAPPHPPPLSP | 0.695 ± 0.04
PPAPPPASPGLV | 0.7017 ± 0.0009
PPAPPPCTPPPP | 0.69493 ± 0.0002
PPATLIWAWFFR | 0.67 ± 0.022
PPATPPRPPLPS | 0.675 ± 0.057
PPATRSLSAASP | 0.722 ± 0.0095
PPCAPPPSPLAC | 0.684 ± 0.043
PPCHPPPTTSEK | 0.677 ± 0.032
PPDTPRTQKADT | 0.755 ± 0.029
PPELHTIRARQI | 0.58 ± 0.082

Sequence | protein stability index
PPFASSPPFIFL | 0.705 ± 0.062
PPFLTTYPHLAP | 0.71 ± 0.031
PPFPLSPLPPPL | 0.71 ± 0.0047
PPFPPLPSPFTS | 0.708 ± 0.018
PPFRSPPRHDPL | 0.662 ± 0.015
PPGLPPIRCPPT | 0.631 ± 0.037
PPGPPRPPPRTP | 0.689 ± 0.0036
PPGSPPSLPPLP | 0.711 ± 0.057
PPHASRAPPFPR | 0.671 ± 0.047
PPHLPPSLSVLP | 0.663 ± 0.057
PPHPLLSPPPFP | 0.821 ± 0.088
PPHPPPPATPCP | 0.682 ± 0.013
PPHPPPPFPPPP | 0.744 ± 0.015
PPHPPPTTVHLA | 0.7052 ± 0.002
PPHPSTPIPPPR | 0.672 ± 0.012
PPHPTPRTLPSP | 0.691 ± 0.0027
PPHSHRSRHPPP | 0.688 ± 0.061
PPHTLTSTIRPN | 0.73 ± 0.019
PPILRPAKSAQG | 0.705 ± 0.024
PPIPPPPPLPPP | 0.621 ± 0.023
PPIPSLPPASFP | 0.69 ± 0.044
PPLGPRALPSPA | 0.67 ± 0.038

From the supplement of paper PMC10724198
